Experimental data published in the supplement of paper PMC9732359.
± gives the uncertainty stated by the source.

Assay: protein stability index of a GFP-peptide fusion (yeast GPS) (PSI 1-4); higher = more stable; sorted into four equal gates, so the index is relative within each strain
How it was run: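 Plasmids in a pooled yeast library fused tiled 17-residue yeast protein peptides downstream of GFP and also expressed Cherry. Mid-log cultures grown without leucine were sorted into four equal gates by GFP/Cherry fluorescence ratio. Each gate's plasmids were PCR-amplified and Illumina-sequenced, and reads were matched to strains by barcodes. The protein stability index is derived by multiplying each gate's read frequency by its gate number and summing the results.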

| Sequence | protein stability index (doa10∆) | protein stability index (pdr5∆) | protein stability index (san1∆) | protein stability index (ubr1∆) |
| --- | --- | --- | --- | --- |
| MTYKNKLTVCFDDILKV [MED2] | 2.13 ± 0.048 | 2 ± 0.041 | 1.9 ± 0.071 | 2.08 ± 0.033 |
| MVATVKRTIRIKTQQHI [TAF14] | 1.62 ± 0.09 | 1.95 ± 0.053 | 1.53 ± 0.14 | 1.56 ± 0.09 |
| MVAYSPIIATYGNRAEQ [SRP68] | 2.18 ± 0.085 | 2.54 ± 0.059 | 2.7 ± 0.082 | 2.78 ± 0.073 |
| MVEWLESRSFSPIPFPP [PRP8] | 2.52 ± 0.13 | 2.83 ± 0.17 | 3.17 ± 0.13 | 2.9 ± 0.11 |
| MVGQQYSSAPLRTVKEV [RPO21] |  | 1.92 ± 0.27 |  |  |
| MVHREFLKLANGGKFSK [RGR1] | 3.22 ± 0.08 | 2.74 ± 0.074 | 3.14 ± 0.12 | 2.91 ± 0.07 |
| MVLVQDLLHPTAASEAR [RPS27A] | 2.45 ± 0.19 | 3.37 ± 0.089 | 3.17 ± 0.19 | 3.17 ± 0.11 |
| MVMFMHMAKGLYYGSYR [COB] | 1.18 ± 0.086 | 1.16 ± 0.13 | 1.75 ± 0.22 | 1.13 ± 0.072 |
| MYGLTMEWPKDMLKYKE [ITC1] | 3.53 ± 0.17 | 3.1 ± 0.28 |  | 3.07 ± 0.2 |
| NAANVPVENIWADIFAK [RPP1A] | 2.2 ± 0.083 | 2.51 ± 0.11 | 2.48 ± 0.1 | 2.34 ± 0.081 |
| NAARKAEASGEAADEAD [RPS9A] | 3.29 ± 0.24 | 3.03 ± 0.29 |  | 3.47 ± 0.11 |
| NAIFQMESEEVPLTKRY [PCI8] | 2.81 ± 0.05 | 2.82 ± 0.045 | 2.85 ± 0.038 | 3.08 ± 0.044 |
| NAISLQLKYDTSVQEKE [YIL149C/MLP2] | 2.61 ± 0.13 | 2.33 ± 0.12 | 2.75 ± 0.099 | 2.92 ± 0.07 |
| NAISNTQDDFTTSVDVM [SRP54] | 2.79 ± 0.076 | 2.76 ± 0.061 | 3.1 ± 0.064 | 3.2 ± 0.045 |
| NAKKRVFKTHSYRGVDL [RPS15] | 2.93 ± 0.053 | 2.15 ± 0.033 | 3.16 ± 0.039 | 3.32 ± 0.047 |
| NALHTERLHELKKLQSD [SMC1] | 3.59 ± 0.078 | 3.38 ± 0.12 | 3.18 ± 0.095 | 3.48 ± 0.1 |
| NALYDTLLESNLCKIIE [RPN6] | 2.07 ± 0.068 | 2.48 ± 0.079 | 2.01 ± 0.065 | 2.41 ± 0.082 |
| NANEISANTNNTCTIST [SWP82] | 2.61 ± 0.041 | 2.61 ± 0.045 | 2.9 ± 0.04 | 2.62 ± 0.031 |
| NANQQFLPFNNSASNNG [SWI1] | 3 ± 0.052 | 2.97 ± 0.052 | 2.96 ± 0.042 | 3.02 ± 0.06 |
| NANTGFSFGGTQTGQNT [YGL172W/NUP49] | 3.42 ± 0.14 | 3.21 ± 0.11 | 3.23 ± 0.086 | 3.49 ± 0.11 |
| NAQDIDHFLSMCQNPMQ [FAS1] | 3.51 ± 0.23 | 2.84 ± 0.17 |  |  |
| NARMPGMPNMPGMPNMP [SRP54] | 3.34 ± 0.11 | 3.25 ± 0.085 | 3.09 ± 0.062 | 2.94 ± 0.071 |
| NASANSTSFSFNAPATG [YOR098C/NUP1] | 2.99 ± 0.049 | 2.94 ± 0.051 | 3.05 ± 0.046 | 2.96 ± 0.033 |
| NASGNKRSGVIETVDDK [ITC1] | 2.55 ± 0.09 | 2.58 ± 0.097 | 2.27 ± 0.12 | 2.45 ± 0.052 |
| NASQMGNTGSGGYDNAW [RPB3] | 3.36 ± 0.28 | 3.31 ± 0.17 | 3.52 ± 0.2 | 2.5 ± 0.15 |
| NATANATANATANATAE [SNF11] | 3.15 ± 0.04 | 3.33 ± 0.042 | 3.18 ± 0.042 | 3.325 ± 0.03 |
| NCIRILADKLENYEGKQ [YIL149C/MLP2] | 3 ± 0.3 | 3.57 ± 0.2 | 3.22 ± 0.093 | 2.81 ± 0.19 |

| Sequence | protein stability index (doa10∆) | protein stability index (pdr5∆) | protein stability index (san1∆) | protein stability index (ubr1∆) |
| --- | --- | --- | --- | --- |
| NDANITSNKEGFNSIWK [SSN2] | 3.17 ± 0.077 | 3.26 ± 0.079 | 3.3 ± 0.051 | 3.09 ± 0.069 |
| NDDELNKLLGNVTIAQG [HTA1] | 3.31 ± 0.12 | 3.5 ± 0.12 | 3.48 ± 0.064 | 3.34 ± 0.078 |
| NDEKRVKEEYDIWQSRD [YIL149C/MLP2] | 3.22 ± 0.062 | 3.06 ± 0.078 | 3.25 ± 0.049 | 3.39 ± 0.084 |
| NDELVELLANKCPLLVE [GRR1] | 2.08 ± 0.058 | 2.13 ± 0.04 | 2.1 ± 0.078 | 1.96 ± 0.035 |
| NDIDDLDMELAELDPSL [SEC65] | 3.34 ± 0.15 | 3.23 ± 0.089 | 3.08 ± 0.077 | 3.03 ± 0.073 |
| NDIFERIATEASKLAAY [HTB1] | 1.93 ± 0.23 | 1.34 ± 0.11 | 1.19 ± 0.17 | 1.34 ± 0.24 |
| NDIHLRFMRFLADRDEF [ECM29] | 2.44 ± 0.065 | 2.24 ± 0.059 | 2.21 ± 0.16 | 2.5 ± 0.038 |
| NDKLIVDNDNWVYKTKG [RPN1] | 2.81 ± 0.14 | 2.77 ± 0.18 | 3.18 ± 0.28 |  |
| NDLRVSLNEKNALHTER [SMC1] | 3.11 ± 0.11 | 3.24 ± 0.096 | 2.67 ± 0.11 | 2.81 ± 0.089 |
| NDNEGKHISASIDNDFS [YAR002W/NUP60] | 3.05 ± 0.089 | 3.04 ± 0.071 | 3.19 ± 0.099 | 2.92 ± 0.067 |
| NDPAREKFSSFIESIVV [SNF12] | 2.78 ± 0.056 | 2.8 ± 0.058 | 2.27 ± 0.071 | 2.77 ± 0.04 |
| NDPNAAVNMTQNIMTLP [MED6] | 2.97 ± 0.14 | 2.95 ± 0.089 | 2.71 ± 0.08 | 3.11 ± 0.059 |
| NDVTNKNINIGKHSQEQ [SIR4] | 2.26 ± 0.052 | 2.46 ± 0.047 | 2.81 ± 0.045 | 2.5 ± 0.041 |
| NECIASTSNALKVLSGD [SNF12] | 2.89 ± 0.059 | 2.86 ± 0.07 | 2.86 ± 0.05 | 2.79 ± 0.062 |
| NEDARAIFNNEFDSDDD [RPN4] | 3.09 ± 0.075 | 2.87 ± 0.096 | 3.42 ± 0.073 | 3.41 ± 0.097 |
| NEDLEDGHYIEENSQGN [REC8] |  | 3.37 ± 0.27 |  |  |
| NEDQFLEEITQYEHLIK [YDL116W/NUP84] |  | 3.02 ± 0.27 |  |  |
| NEEGDWSCIVVENWIID [ITC1] | 2.38 ± 0.074 | 2.48 ± 0.082 | 2.68 ± 0.12 | 2.95 ± 0.11 |
| NEEINKKSLEEDDEFED [SEM1] |  | 3.33 ± 0.11 | 2.9 ± 0.25 |  |
| NEKFEIELLSLDDDSIV [SRB4] | 2.58 ± 0.096 | 3.07 ± 0.093 | 2.72 ± 0.081 | 3.1 ± 0.1 |
| NEQLTLLSKKHGQLKLS [RPN5] | 1.6 ± 0.066 | 2.34 ± 0.062 | 1.83 ± 0.081 | 2.4 ± 0.079 |
| NEWIKAQEDVPYLLPYI [QCR7] | 2.42 ± 0.095 | 2.46 ± 0.078 | 2.6 ± 0.077 | 2.5 ± 0.056 |
| NEYRLAFYQVTPEEDEE [RPL22A] | 2.52 ± 0.077 | 2.61 ± 0.071 | 2.75 ± 0.073 | 2.69 ± 0.087 |
| NFARQLLFNNDFPLLKV [RRP40] | 2.91 ± 0.05 | 2.02 ± 0.049 | 2.06 ± 0.08 | 2.12 ± 0.037 |
| NFGGGNNTTPSSTGNAN [YJL041W/NSP1] | 2.05 ± 0.058 | 2.02 ± 0.055 | 1.73 ± 0.079 | 3.06 ± 0.071 |
| NFHNSKKRMNSNQERCH [RRI1] | 2.51 ± 0.062 | 2.51 ± 0.057 | 2.83 ± 0.071 | 2.99 ± 0.07 |
| NFKDMSHVNKYGLIRGL [PRP8] | 2 ± 0.069 | 1.47 ± 0.067 | 2.19 ± 0.13 | 1.16 ± 0.032 |
